The data set has as its target T1, ΔHNH-Cas9 (ΔHNH-4; T769-K918 replaced by GGSGGS) (Streptococcus pyogenes).
T1 chain: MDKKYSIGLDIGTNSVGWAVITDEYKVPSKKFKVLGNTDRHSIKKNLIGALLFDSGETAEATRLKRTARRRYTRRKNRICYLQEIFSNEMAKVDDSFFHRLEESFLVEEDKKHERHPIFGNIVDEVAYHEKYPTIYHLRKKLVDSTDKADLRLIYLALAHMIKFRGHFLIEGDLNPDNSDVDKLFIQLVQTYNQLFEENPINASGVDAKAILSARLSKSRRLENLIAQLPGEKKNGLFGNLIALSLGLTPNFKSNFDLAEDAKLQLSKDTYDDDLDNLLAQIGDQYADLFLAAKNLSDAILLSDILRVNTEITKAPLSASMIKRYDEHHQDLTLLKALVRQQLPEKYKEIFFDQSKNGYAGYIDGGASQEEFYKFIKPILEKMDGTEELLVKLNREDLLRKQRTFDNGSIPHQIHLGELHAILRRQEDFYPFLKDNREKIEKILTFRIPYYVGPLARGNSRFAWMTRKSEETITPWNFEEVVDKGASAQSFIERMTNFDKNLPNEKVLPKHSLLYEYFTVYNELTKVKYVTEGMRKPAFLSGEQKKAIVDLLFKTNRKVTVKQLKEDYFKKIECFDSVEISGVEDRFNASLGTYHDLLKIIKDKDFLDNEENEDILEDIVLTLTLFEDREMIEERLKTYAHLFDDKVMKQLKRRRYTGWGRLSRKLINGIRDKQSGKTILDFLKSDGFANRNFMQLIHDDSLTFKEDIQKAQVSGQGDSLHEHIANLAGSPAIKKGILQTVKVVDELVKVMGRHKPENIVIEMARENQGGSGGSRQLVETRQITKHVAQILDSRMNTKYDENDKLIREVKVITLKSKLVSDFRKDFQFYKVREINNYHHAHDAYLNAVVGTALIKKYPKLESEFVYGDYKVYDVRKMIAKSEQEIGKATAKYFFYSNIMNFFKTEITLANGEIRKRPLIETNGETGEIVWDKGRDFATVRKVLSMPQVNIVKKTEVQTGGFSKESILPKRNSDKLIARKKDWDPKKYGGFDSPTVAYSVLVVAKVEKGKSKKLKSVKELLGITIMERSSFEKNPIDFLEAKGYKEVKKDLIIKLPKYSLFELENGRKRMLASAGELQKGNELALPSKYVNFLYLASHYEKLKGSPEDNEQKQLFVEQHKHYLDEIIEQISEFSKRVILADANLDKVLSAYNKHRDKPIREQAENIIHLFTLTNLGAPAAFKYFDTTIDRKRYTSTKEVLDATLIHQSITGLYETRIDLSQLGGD
Nature of the data set: EMSA; PAM TGG; 5 mM MgCl2, 100 mM KCl, pH 7.5, 50 ug/mL heparin, room temperature, 100 nM sgRNA. The note with it: tags: N-terminal His10-MBP, TEV protease treated; label: 5'-radiolabel; single-guide RNA. A general note: Mobility shift assays separate free from complexed probe on a gel.

For one molecule, Kd results are on record in patent publication US20180298360, “CAS9 VARIANTS AND METHODS OF USE THEREOF” (The Regents of the University of California, published 2018).

Description: Binding reactions (15 μL) were performed at room temperature in Reaction Buffer supplemented with 50 μg/mL heparin using <0.1 nM radiolabeled dsDNA substrates. Reactions were resolved by 8% native polyacrylamide gel electrophoresis (0.5×TBE, 5 mM MgCl₂) for 1.5-2 hr at 4° C. in a running buffer containing 0.5×TBE and 5 mM MgCl₂. Reactions were visualized by phosphorimaging (GE Healthcare).
Reactions were resolved by 8% native polyacrylamide gel electrophoresis. […] Solid lines represent fits from binding isotherms.

B1: sgRNA (bacteriophage target) ; 55-bp DNA substrate (ssRNA ; dsDNA)
RNA: GACGCAUAAAGAUGAGACGCGUUUUAGAGCUAUGCUGUUUUGGAAACAAAACAGCAUAGCAAGUUAAAAUAAGGCUAGUCCGUUAUCAACUUGAAAAAGUGGCACCGAGUCGGUGCUUUUUUUGGAUC
DNA 1: AGCAGAAATCTCTGCTGACGCATAAAGATGAGACGCTGGAGTACAAACGTCAGCT
DNA 2: AGCTGACGTTTGTACTCCAGCGTCTCATCTTTATGCGTCAGCAGAGATTTCTGCT
On to B1, for which the Kd turned out to be 1.2 nM.

Usually Kd stands for a measure of binding affinity in units of concentration.
